# In publication PMC11600153, “Mg^2+-Ion Dependence Revealed for a BAHD 13-O-β-Aminoacyltransferase from Taxus Plants” (JACS Au, 2024):
# Substrate: CC(C)=C[C@H](N)[C@@H](O)C(=O)O
# Experiment: LC/ESI-MS/MS product quantification, Michaelis-Menten fit
# Type: biochemical, Brevibacillus parabrevis
# Conditions: 7 varied 0.05-1 mM, CoA 1 mM, ATP 1 mM, MgCl2, phosphate pH 8, 31 °C
protein,measurement,value
"PheAT (truncated TycA module of tyrocidine synthase) (Brevibacillus parabrevis) (protein, truncated TycA (PheAT)) MLANQANLIDNKRELEQHALVPYAQGKSIHQLFEEQAEAFPDRVAIVFENRRLSYQELNRKANQLARALLEKGVQTDSIVGVMMEKSIENVIAILAVLKAGGAYVPIDIEYPRDRIQYILQDSQTKIVLTQKSVSQLVHDVGYSGEVVVLDEEQLDARETANLHQPSKPTDLAYVIYTSGTTGKPKGTMLEHKGIANLQSFFQNSFGVTEQDRIGLFASMSFDASVWEMFMALLSGASLYILSKQTIHDFAAFEHYLSENELTIITLPPTYLTHLTPERITSLRIMITAGSASSAPLVNKWKDKLRYINAYGPTETSICATIWEAPSNQLSVQSVPIGKPIQNTHIYIVNEDLQLLPTGSEGELCIGGVGLARGYWNRPDLTAEKFVDNPFVPGEKMYRTGDLAKWLTDGTIEFLGRIDHQVKIRGHRIELGEIESVLLAHEHITEAVVIAREDQHAGQYLCAYYISQQEATPAQLRDYAAQKLPAYMLPSYFVKLDKMPLTPNDKIDRKALPEPDLTANQSQAAYHPPRTETESILVSIWQNVLGIEKIGIRDNFYSLGGDSIQAIQVVARLHSYQLKLETKDLLNYPTIEQVALFVKSTTRKSD",Km,112 µM
same,kcat,0.0083 s⁻¹
